Assay [1] addresses T1, Her-2 (human, UniProt P04626 23-652).
T1 construct: Bought protein (R&D systems); also called human EGFR-2 (Her-2); Her2 antigen
The assay is described as follows: ELISA, Her-2 immobilized at 1 µg/ml, detection with HRP-labeled anti-FLAG antibody, OD 405 nm. In general terms: An ELISA detects its analyte on a solid surface through an enzyme-linked reagent.

In assay [2] the target is T2, biotinylated Her-2 (human, UniProt P04626 23-652, biotinylated with Sulfo-NHS-SS-Biotin (sites not given)).
T2 construct: also called biotinylated antigen
The assay is described as follows: sandwich ELISA, biotinylated antigen captured on the stAv coating (BSA coating as control), Fab detected with HRP-labeled anti-FLAG antibody, OD 405 nm.

B1: Fab-TT (Fab)
chain 1: MDIQMTQSPSSLSASVGDRVTITCRASQDIKNYLSWYQQQPGNAPKPLIYAGSNRQSGVPSRFSGSGSETDFTLTISSLQPEDFATYYCQQTYIYPITFGQGTKVEIKRTVAAPSVFIFPPSDEQLKSGTASVVCLLNNFYPREAKVQWKVDNALQSGNSQESVTEQDSKDSTYSLSSTLTLSKADYEKHKVYACEVTHQGLSSPVTKSFNRGEGGEQKLISEEDL
chain 2: MEVQLVESGGGLVQPGGSLRLSCAASGFTIERYAMGWVRQAPGKGLEWVGTIYPWGDYTDYADSVKGRFTISRDNSKNTLYLQMNSLRDEDTAVYYCARSNYPNGMYYVMEYWGQGTLVTVSSASTKGPSVFPLAPSSKSTSGGTAALGCLVKDYFPEPVTVSWNSGALTSGVHTFPAVLQSSGLYSLSSVVTVPSSSLGTQTYICNVNHKPSNTKVDKKVEPGSGGDYKDDDDKSSDYKDDDDKHHHHHH
notes: also called Fag-TT; TNFαR-reactive Fab
With B1, the binding result in assay [1] and in assay [2] was “no binding” in each case.

B2: Fab-HT (Fab)
chain 1: not shown
chain 2: MEVQLVESGGGLVQPGGSLRLSCAASGFTIERYAMGWVRQAPGKGLEWVGTIYPWGDYTDYADSVKGRFTISRDNSKNTLYLQMNSLRDEDTAVYYCARSNYPNGMYYVMEYWGQGTLVTVSSASTKGPSVFPLAPSSKSTSGGTAALGCLVKDYFPEPVTVSWNSGALTSGVHTFPAVLQSSGLYSLSSVVTVPSSSLGTQTYICNVNHKPSNTKVDKKVEPGSGGDYKDDDDKSSDYKDDDDKHHHHHH
notes: also called hybrid Fab (Her-2-reactive L chain and TNFαR-reactive H chain)
Turning to B2, in assay [1], the binding result is recorded as “no binding”.
